The DeepSol protein solubility set

experiment: soluble on expression in E. coli; label from the status in PepcDB or PDB records

| Sequence | soluble on expression in E. coli |
| --- | --- |
| AWPEGQALGPGMPLPEPSEQEGESVKAGQEPSPKPGTDVIPAAPRKPREFSKLVLLTASDQDEDGVGSKPQEVHCVLSLEMAGPATLASTLQILPVEEQGGVVQPALEMPEQKCSKLDAAPQSLEFLRTPFGGRLLVLESFLYKQEKAVGDKVYWKCRQHAELGCRGRAITRGLRATVMRGHCHAPDEQGLEARRQREKLPSLALPEGLGEPQGPEGPGGRVEEPLEGVGPWQCPEEPEPTPGLVLSKPALEEEEAPRALSLLSLPPKKRSILGLGQARPLEFLRTCYGGSFLVHESFLYKREKAVGDKVYWTCRDHALHGCRSRAITQGQRVTVMRGHCHQPDMEGLEARRQQEKAVETLQAGQDGPGSQVDTLLRGVDSLLYRRGPGPLTLTRPRPRKRAKVEDQELPTQPEAPDEHQDMDADPGGPEFLKTPLGGSFLVYESFLYRREKAAGEKVYWTCRDQARMGCRSRAITQGRRVTVMRGHCHPPDLGGLEALRQREKRPNTAQRGSPGGPEFLKTPLGGSFLVYESFLYRREKAAGEKVYWTCRDQARMGCRSRAITQGRRVMVMRRHCHPPDLGGLEALRQREHFPNLAQWDSPDPLRPLEFLRTSLGGRFLVHESFLYRKEKAAGEKVYWMCRDQARLGCRSRAITQGHRIMVMRSHCHQPDLAGLEALRQRERLPTTAQQEDPEKIQVQLCFKTCSPESQQIYGDIKDVRLDGESQ | soluble |
| MTLTKGSFTYSSGEEYRGEWKEGRRHGFGQLVFADGGTYLGHFENGLFNGFGVLTFSDGSRYEGEFSQGKFNGVGVFIRYDNMTFEGEFKNGRVDGFGLLTFPDGSHGIPRNEGLFENNKLLRREKCSAVVQRAQSASKSARNLTA | soluble |
| MSLEKEYEYLVPPDDYLAAGVHIGTQIKTGDMKKFIFKVRQDGLYVLDIRKLDERIRVAAKFLSRYEPSKILLVAARQYAHKPVQMFSKVVGSDYIVGRFIPGTLTNPMLSEYREPEVVFVNDPAIDKQAVSEATAVGIPVVALCDSNNSSADVDLVIPTNNKGRRALAIVYWLLAREIAKIRGQDFTYSIEDFEAELEGGSHHHHHH | soluble |
| GSSQISDMTRDGLANKALAVARTLADSPEIRQGLQKKPQESGIQAIAEAVRKRNDLLFIVVTDMQSLRYSHPEAQRIGQPFKGDDILKALNGEENVAINRGFLAQALRVFTPIYDENHKQIGVVAIGLELSRVTQQINDSRW | soluble |
| MKRVAAVIEYDGSNFFGYQGQPDVRTVQGVIEDALERIFKQRIYTQAAGRTDTGVHANGQLIAFNCPNDRMTTEDIRNAMNANLPDDVYVKEVFEVPVNFHPRFDVTKRIYHYFILTSRQKNVFLRKYVWWFPYELDLDAMRKAVKYLEGTHDFTSFKTGSDERDPVRTIYRIRILRLKNDLVLIRVEGRSFLRRMVRNIVAALVKVGLKQWEPEKMKEVLEARDRSAAAGTAPAHGLYFYKVLF | soluble |
| MSSPSSASESDSSQMSLLATPPVAIRRPLPYPRDIISSPLEVATPVTVSPTDFMPIRELVTTPYHISTPVLITPVDARSISREIVRVNRIRRVRTRQASRSVFNSVRRRLSMITANRTEIQMNTPQTLPRSKRIDNTSTAMEPVSSNAFQKIISEILNNSPACTETINSTIIPSNSSNCAKLREFNRLESIGIAQMAVENENEILEALDFIEWNIRLMSCESDYIDKVLEDLENEKLNKQNKWERIELILSLIQD | not soluble |
| MGNNSSAQSSTPSLPIDSTFNLPSPLPSWPSGEGFAKGRIDLGGLEVSQVDTFNKVWTVYEGGQDNLGATFFEPSSVPEGFSILGFYAQPNNRKLFGWTLVGKDLSGDSLRPPVDYLLLWSGKSTKVENNKVETGYFWQPVPPDGYNAVGLIVTTSDEKPPLDKIRCVRSDLTDQSEPDALIWETNGFSVSSSKPVNRGTQASGVSVGTFFSNSPNPALPCLKNNNFDFSCMPSKPQIDALFQTYAPWIYFHKDEKYLPSSVNWFFSNGALLYKKGDESNPVPVEPNGLNLPQGEFNDGLYWLDLPVASDARKRVQCGDLQSMEVYLHIKPVFGGTFTDIAVWMFYPFNGPSRAKLKAASIPLGRIGEHIGDWEHFTLRISNFSGKLHRMYLSQHSGGSWADASEIEFQGGGNKPVAYASLNGHAMYSKPGLVLQGKDNVGIRNDTGKSEKVIDTAVRFRVVAAEYMRGELEEPAWLNYMRHWGPKIDYGHENEIRGVEKIMVGESLKTTFRSAIKGLPNEVFGEEGPTGPKLKRNWLGDEV | not soluble |
